Source: paper PMC3229523, “Identification of Lactoferricin B Intracellular Targets Using an Escherichia coli Proteome Chip” (PLoS ONE, 2011)
Ends that are not written are not given here. * marks the point of attachment. Biotin = O=C1N[C@H]2[C@H](CS[C@H]2CCCCC(=O)*)N1

Key:
Test in all cases: peptide or protein array; E. coli proteome chip: purified His-tagged proteins printed in duplicate on Fullmoon slides, blocked with 1% BSA; 10 nM N-terminal biotinylated LfcinB with 1% BSA, room temperature, 1 h; detected with DyLight 649-labeled streptavidin, ratio to DyLight 549-labeled anti-His antibody; ProCAT normalisation, local cut-off; triplicate chips
Settings in all cases: both partners purified
CreB = target: T1, CreB (E. coli K-12, UniProt P08368 1-229)
T1 construct: CreB, E. coli K-12
T1 sequence (looked up): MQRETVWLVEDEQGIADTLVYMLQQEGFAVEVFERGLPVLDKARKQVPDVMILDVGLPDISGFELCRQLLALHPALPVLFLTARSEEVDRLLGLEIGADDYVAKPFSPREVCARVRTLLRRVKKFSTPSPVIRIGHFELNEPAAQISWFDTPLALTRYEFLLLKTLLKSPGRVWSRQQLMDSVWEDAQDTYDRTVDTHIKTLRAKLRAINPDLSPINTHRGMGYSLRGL

YjdK = target: T2, YjdK (E. coli K-12, UniProt P0AF61 1-98)
T2 construct: YjdK, E. coli K-12
T2 sequence (looked up): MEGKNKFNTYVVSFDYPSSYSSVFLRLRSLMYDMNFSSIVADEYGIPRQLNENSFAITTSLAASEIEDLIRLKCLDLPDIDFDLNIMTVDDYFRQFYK

AmiA = target: T3, AmiA (E. coli K-12, UniProt P36548 35-289)
T3 construct: AmiA, E. coli K-12
T3 sequence (looked up): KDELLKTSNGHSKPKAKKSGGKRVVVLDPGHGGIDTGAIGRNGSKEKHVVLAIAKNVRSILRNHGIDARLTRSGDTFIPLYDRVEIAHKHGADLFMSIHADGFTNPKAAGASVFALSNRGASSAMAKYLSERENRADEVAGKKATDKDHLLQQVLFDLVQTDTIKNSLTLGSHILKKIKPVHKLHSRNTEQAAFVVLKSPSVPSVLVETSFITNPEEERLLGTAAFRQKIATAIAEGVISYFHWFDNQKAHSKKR

YibA = target: T4, YibA (E. coli K-12, UniProt P0ADK6 1-280)
T4 construct: YibA, E. coli K-12
T4 sequence (looked up): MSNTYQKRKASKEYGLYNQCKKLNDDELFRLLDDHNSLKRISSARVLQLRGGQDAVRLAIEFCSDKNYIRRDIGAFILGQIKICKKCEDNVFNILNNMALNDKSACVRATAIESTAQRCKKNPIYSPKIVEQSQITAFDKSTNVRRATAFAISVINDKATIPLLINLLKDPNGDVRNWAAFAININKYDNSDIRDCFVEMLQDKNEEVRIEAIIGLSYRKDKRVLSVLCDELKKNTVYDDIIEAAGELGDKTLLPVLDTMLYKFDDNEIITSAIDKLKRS

YcgW = target: T5, YcgW (E. coli K-12, UniProt P75987 1-107)
T5 construct: YcgW, E. coli K-12
T5 sequence (looked up): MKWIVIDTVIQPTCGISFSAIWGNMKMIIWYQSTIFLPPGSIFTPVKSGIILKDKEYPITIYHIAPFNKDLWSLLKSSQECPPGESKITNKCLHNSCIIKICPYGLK

YhaJ = target: T6, YhaJ (E. coli K-12, UniProt P67660 1-298)
T6 construct: YhaJ, E. coli K-12
T6 sequence (looked up): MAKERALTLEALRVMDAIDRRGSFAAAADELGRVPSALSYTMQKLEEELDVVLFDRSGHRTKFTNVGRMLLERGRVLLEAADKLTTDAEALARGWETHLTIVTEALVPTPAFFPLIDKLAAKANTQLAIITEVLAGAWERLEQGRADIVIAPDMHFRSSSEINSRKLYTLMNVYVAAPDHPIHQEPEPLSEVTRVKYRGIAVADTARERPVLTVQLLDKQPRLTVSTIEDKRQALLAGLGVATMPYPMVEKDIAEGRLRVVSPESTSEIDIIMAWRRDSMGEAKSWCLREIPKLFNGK

HemK = target: T7, HemK (E. coli K-12, UniProt P0ACC1 1-277)
T7 construct: HemK, E. coli K-12
T7 sequence (looked up): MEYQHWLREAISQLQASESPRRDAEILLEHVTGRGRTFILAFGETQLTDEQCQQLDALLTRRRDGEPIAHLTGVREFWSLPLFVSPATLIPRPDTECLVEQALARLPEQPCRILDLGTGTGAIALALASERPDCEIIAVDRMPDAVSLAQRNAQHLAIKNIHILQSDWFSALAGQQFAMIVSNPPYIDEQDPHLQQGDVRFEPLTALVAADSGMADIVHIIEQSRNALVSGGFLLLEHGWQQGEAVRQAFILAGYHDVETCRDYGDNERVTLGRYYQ

Measured: binding result

B1: N-terminal biotinylated Lactoferricin B (peptide, UniProt P24627 36-60, looked up)
peptide: Biotin-FKCRRWQWRMKKLGAPSITCVRRAF
modifications: ends and bridges not checked
notes: lactoferricin B (LfcinB), cationic antimicrobial peptide of 25 amino acids; also called biotinylated LfcinB; biotin-labeled LfcinB; source: bought: Kelowna Inc
binds: all assays above
